{"source": "patent US20260265358A1", "about": "(BYOMASS, published 2026)", "binders": {"B1": {"name": "anti-Activin A antibody Clone B (IgG) (antibody, V domains shown)", "VH": "QVQLVQSGAEVKKPGASVKVSCKASGYTFIGYDMHWVRQAPGQGLEWMGVINPSSGGTNYAQKFQGRVTMTRDTSISTAYMELSRLRSDDTAVYYCARARDIAALGLGAFDYWGQGTLVTVSS", "VL": "not shown", "notes": "IgG format; also called Antibody B"}, "B2": {"name": "Fab of anti-Activin A antibody Clone B (Fab, V domains shown)", "VH": "B1 VH", "VL": "not shown", "notes": "Fab format; only VH and VL are tied to the clone; also called Fab of Clone B"}}, "key": {"Human Activin A Fc [1]": {"target": "T1, Human Activin A Fc (human, UniProt P03970 309-424 (pig entry))", "T1 construct": "also called human Activin A-Fc fusion; human Activin A-Fc antigen; not shown: Fc part", "T1 sequence": "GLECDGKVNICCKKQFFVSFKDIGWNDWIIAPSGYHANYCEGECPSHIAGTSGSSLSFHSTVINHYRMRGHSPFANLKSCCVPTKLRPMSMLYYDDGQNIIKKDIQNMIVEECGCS", "test": "KD with 5% HSA, method not stated"}, "Human Activin B Fc [2]": {"target": "T2, Human Activin B Fc (human, UniProt P09529 293-407, limits assumed)", "T2 construct": "not shown: Fc part", "T2 sequence (looked up)": "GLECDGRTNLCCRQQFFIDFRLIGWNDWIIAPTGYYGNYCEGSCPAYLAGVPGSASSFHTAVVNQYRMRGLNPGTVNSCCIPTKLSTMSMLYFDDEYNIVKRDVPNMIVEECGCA", "test": "KD with 5% HSA, method not stated"}, "Human GDF-11 Fc [3]": {"target": "T3, Human GDF-11 Fc (human, UniProt O95390 299-407, limits assumed)", "T3 construct": "not shown: Fc part", "T3 sequence (O95390 299-407 limits assumed)": "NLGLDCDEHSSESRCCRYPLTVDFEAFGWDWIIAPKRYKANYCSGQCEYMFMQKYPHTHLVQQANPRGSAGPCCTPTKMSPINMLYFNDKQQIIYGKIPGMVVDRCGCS", "test": "KD with 0.1% BSA, method not stated"}, "Human Activin B Fc [4]": {"target": "T2, Human Activin B Fc", "test": "KD with 0.1% BSA, method not stated"}, "Human GDNF": {"target": "T4, Human GDNF (human, UniProt P39905 78-211)", "T4 sequence (looked up)": "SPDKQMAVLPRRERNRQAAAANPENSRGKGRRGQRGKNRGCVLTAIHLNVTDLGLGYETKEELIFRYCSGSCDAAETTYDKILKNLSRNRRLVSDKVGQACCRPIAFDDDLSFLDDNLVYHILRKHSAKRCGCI", "test": "Octet BLI, IgG, avid"}, "Human GDF10": {"target": "T5, Human GDF10 (human, UniProt P55107 369-478)", "T5 sequence (looked up)": "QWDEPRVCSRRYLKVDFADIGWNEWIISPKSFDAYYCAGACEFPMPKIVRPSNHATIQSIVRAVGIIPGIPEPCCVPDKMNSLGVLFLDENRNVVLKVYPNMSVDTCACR", "test": "Octet BLI, IgG, avid"}, "Activin B": {"target": "T6, Activin B (UniProt P09529 293-407)", "T6 sequence (looked up)": "T2 sequence (looked up)", "test": "Octet BLI, IgG, avid"}, "Human GDF11": {"target": "Human GDF11 (human, UniProt O95390 299-407)", "sequence (O95390 299-407 limits assumed)": "as the sequence (O95390 299-407 limits assumed) above", "test": "Octet BLI, IgG, avid"}, "Human GDF8": {"target": "Human GDF8 (human, UniProt O14793 267-375)", "test": "Octet BLI, IgG, avid"}, "BMP10": {"target": "T7, BMP10 (UniProt O95393 317-424)", "T7 sequence (looked up)": "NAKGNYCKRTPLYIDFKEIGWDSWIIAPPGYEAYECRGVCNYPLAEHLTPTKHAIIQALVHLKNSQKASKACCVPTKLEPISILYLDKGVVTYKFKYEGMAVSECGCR", "test": "Octet BLI, IgG, avid"}, "GDF15 Fc": {"target": "T8, GDF15 Fc (UniProt Q99988 197-308, limits assumed)", "T8 construct": "not shown: Fc part", "T8 sequence (looked up)": "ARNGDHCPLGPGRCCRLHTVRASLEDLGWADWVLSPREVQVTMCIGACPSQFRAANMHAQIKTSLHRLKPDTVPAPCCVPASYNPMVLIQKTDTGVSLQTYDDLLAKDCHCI", "test": "Octet BLI, IgG, avid"}, "BMP9": {"target": "T9, BMP9 (UniProt Q9UK05 320-429)", "T9 sequence (looked up)": "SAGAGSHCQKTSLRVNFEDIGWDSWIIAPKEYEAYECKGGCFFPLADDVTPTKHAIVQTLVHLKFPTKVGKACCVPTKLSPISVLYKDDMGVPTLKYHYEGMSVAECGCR", "test": "Octet BLI, IgG, avid"}, "Human GDF-11 Fc [5]": {"target": "T3, Human GDF-11 Fc", "test": "KD with 0.1% HSA, method not stated"}, "Human Activin A Fc [6]": {"target": "T1, Human Activin A Fc", "test": "KD with 0.1% HSA, method not stated"}, "Human Activin B Fc [7]": {"target": "T2, Human Activin B Fc", "test": "KD with 0.1% HSA, method not stated"}, "Human Activin A Fc [8]": {"target": "T1, Human Activin A Fc", "test": "KD with 0.1% BSA, method not stated; with 0.1% BSA"}, "Human Activin A Fc [9]": {"target": "T1, Human Activin A Fc", "test": "Octet BLI, IgG, avid", "procedure": "ForteBio affinity measurements were performed on an Octet HTX generally as previously described (see, e.g., Estep et al, Mabs 5(2), 270-278 (2013)). Briefly, ForteBio affinity measurements were performed by loading IgGs on-line onto AHC sensors. Sensors were equilibrated off-line in assay buffer for 30 min and then monitored on-line for 60 seconds for baseline establishment. Sensors with loaded IgGs were exposed to 100 nM antigen for 3 minutes, and afterwards were transferred to assay buffer for 3 min for off-rate measurement. All kinetics were analyzed using the 1:1 binding model.\nBinding affinity and epitope binning assays were performed with a ForteBio instrument as described herein."}, "Human Activin A Fc [10]": {"target": "T1, Human Activin A Fc", "test": "Octet BLI, Fab, monovalent"}, "[11]": {"target": "T10, biotinylated Human Activin A (human, UniProt P03970 309-424 (pig entry), biotinylated (EZ-Link Sulfo-NHS-Biotinylation Kit))", "T10 sequence": "T1 sequence", "test": "SPR (Biacore 8K), antigen captured, Fab analyte", "procedure": "(§1) Kinetic analysis was conducted at 25° C. in HBS-EP+ running buffer (10 mM HEPES pH 7.4, 150 mM NaCl, 3 mM EDTA, 0.05% Surfactant P20) using a Biacore 8K optical biosensor (Cytiva, Marlborough, MA). The sample compartment was maintained at 10° C. for the duration of the experiment. The Biacore 8K can analyze up to 8 separate interactions in a single cycle.\n(§2) Each experiment cycle began with an injection (300 s at 2 μL/min) overflow cells 1 and 2 of a 1:100 solution of biotin CAPture reagent (Cytiva) in running buffer. This was followed by an injection (45 s at 10.0 μL/min) of biotinylated human ACTIVIN A (5 nM) overflow cell 2. Upon capture of ACTIVIN A to the sensor surface, a single concentration of Fab ranging from 0.111-81.0 nM was injected (300 s at 30 μL/min) overflow cells 1 and 2. The dissociation of the antibodies were monitored for 3420 s. Finally, an injection (120 s at 10 μL/min) of regeneration solution (6 M Guanidine-HCl in 0.25 M NaOH) overflow cells 1 and 2 prepared the sensor surface for another cycle. Several blank buffer samples were injected (300 s at 30 μL/min) overflow cells 1 and 2 throughout the duration of the experiment and used for reference surface subtraction—each were monitored for the same amount of dissociation time (3420 s) and regenerated under the same conditions as those for the Fab sample injections.\n(§3) The anti-Activin antibodies identified in Example 1 were characterized. First, binding kinetics of the anti-Activin antibodies was assessed with a Surface Plasmon Resonance assay (Biacore)."}, "[12]": {"target": "T10, biotinylated Human Activin A", "test": "SPR (Biacore 8K), antigen captured, Fab analyte; second, unlabelled row under Clone B (Rmax 38.1)", "procedure": "as §1\nas §2, with “Finally, an injection (120 s at 10 μL/min) of regeneration solution (6 M Guanidine-HCl in 0.25 M NaOH) overflow cells 1 and 2 prepared the sensor surface for another cycle.” left out\nas §3"}}, "note": "Several values for one entry are separate records, joined by “and”; a condition that tells them apart may be missing. Identical values can stand only once."}
{"binder": "B1", "values": [{"measurement": "Kd", "setting": "Human Activin A Fc [1]", "result": 0.217, "unit": "nM"}, {"measurement": "Kd", "setting": "Human Activin B Fc [2]", "result": 10, "unit": "nM"}, {"measurement": "Kd", "setting": "Human GDF-11 Fc [3]", "result": 18.9, "unit": "nM"}, {"measurement": "Kd", "setting": "Human Activin B Fc [4]", "result": 3.37, "unit": "nM"}, {"measurement": "binding result", "setting": "Human GDNF", "result": "no binding (tested: 100 nM antigen)"}, {"measurement": "binding result", "setting": "Human GDF10", "result": "no binding (tested: 100 nM antigen)"}, {"measurement": "Kd", "setting": "Activin B", "result": 46.8, "unit": "nM"}, {"measurement": "Kd", "setting": "Human GDF11", "result": 21, "unit": "nM"}, {"measurement": "binding result", "setting": "Human GDF8", "result": "no binding (tested: 100 nM antigen)"}, {"measurement": "binding result", "setting": "BMP10", "result": "no binding (tested: 100 nM antigen)"}, {"measurement": "binding result", "setting": "GDF15 Fc", "result": "no binding (tested: 100 nM antigen)"}, {"measurement": "binding result", "setting": "BMP9", "result": "no binding (tested: 100 nM antigen)"}, {"measurement": "Kd", "setting": "Human GDF-11 Fc [5]", "result": 18.3, "unit": "nM"}, {"measurement": "Kd", "setting": "Human Activin A Fc [6]", "result": 0.138, "unit": "nM"}, {"measurement": "Kd", "setting": "Human Activin B Fc [7]", "result": 2.96, "unit": "nM"}, {"measurement": "Kd", "setting": "Human Activin A Fc [8]", "result": 0.138, "unit": "nM"}, {"measurement": "Kd", "setting": "Human Activin A Fc [9]", "result": 0.527, "unit": "nM"}]}
{"binder": "B2", "values": [{"measurement": "Kd", "setting": "Human Activin A Fc [10]", "result": 0.309, "unit": "nM"}, {"measurement": "Kd", "setting": "[11]", "result": 0.00981, "unit": "nM"}, {"measurement": "koff", "setting": "[11]", "result": "2.27e-05 s⁻¹ and 1.58e-05 s⁻¹"}, {"measurement": "kon", "setting": "[11]", "result": "2.31e+06 M⁻¹ s⁻¹ and 2.56e+06 M⁻¹ s⁻¹"}, {"measurement": "Kd", "setting": "[12]", "result": 0.00617, "unit": "nM"}]}
